From paper PMC9245660 (Proceedings of the National Academy of Sciences of the …, 2022)

Molecular target: Tom22-T1′ (Tom22 without helix H1) (human) (UniProt Q9NS69)
Assay: pull-down

Work on Su9-TEV-DHFR-EGFP-Strep yielded a decrease in the binding ability against Tom22 before cleavage of 75%.
